Experimental data as given in publication PMC7229152.

What was measured:
[1] = biological target: Act88F^M305L Drosophila indirect flight muscle (IFM) actin, filamentous (F-Act88F^M305L) (Drosophila melanogaster)
[2] = biological target: Act88F^WT Drosophila indirect flight muscle (IFM) actin, filamentous (F-Act88F^WT) (Drosophila melanogaster) (UniProt P83967)

Sequence of rabbit psoas myosin (Q28641 whole entry, looked up): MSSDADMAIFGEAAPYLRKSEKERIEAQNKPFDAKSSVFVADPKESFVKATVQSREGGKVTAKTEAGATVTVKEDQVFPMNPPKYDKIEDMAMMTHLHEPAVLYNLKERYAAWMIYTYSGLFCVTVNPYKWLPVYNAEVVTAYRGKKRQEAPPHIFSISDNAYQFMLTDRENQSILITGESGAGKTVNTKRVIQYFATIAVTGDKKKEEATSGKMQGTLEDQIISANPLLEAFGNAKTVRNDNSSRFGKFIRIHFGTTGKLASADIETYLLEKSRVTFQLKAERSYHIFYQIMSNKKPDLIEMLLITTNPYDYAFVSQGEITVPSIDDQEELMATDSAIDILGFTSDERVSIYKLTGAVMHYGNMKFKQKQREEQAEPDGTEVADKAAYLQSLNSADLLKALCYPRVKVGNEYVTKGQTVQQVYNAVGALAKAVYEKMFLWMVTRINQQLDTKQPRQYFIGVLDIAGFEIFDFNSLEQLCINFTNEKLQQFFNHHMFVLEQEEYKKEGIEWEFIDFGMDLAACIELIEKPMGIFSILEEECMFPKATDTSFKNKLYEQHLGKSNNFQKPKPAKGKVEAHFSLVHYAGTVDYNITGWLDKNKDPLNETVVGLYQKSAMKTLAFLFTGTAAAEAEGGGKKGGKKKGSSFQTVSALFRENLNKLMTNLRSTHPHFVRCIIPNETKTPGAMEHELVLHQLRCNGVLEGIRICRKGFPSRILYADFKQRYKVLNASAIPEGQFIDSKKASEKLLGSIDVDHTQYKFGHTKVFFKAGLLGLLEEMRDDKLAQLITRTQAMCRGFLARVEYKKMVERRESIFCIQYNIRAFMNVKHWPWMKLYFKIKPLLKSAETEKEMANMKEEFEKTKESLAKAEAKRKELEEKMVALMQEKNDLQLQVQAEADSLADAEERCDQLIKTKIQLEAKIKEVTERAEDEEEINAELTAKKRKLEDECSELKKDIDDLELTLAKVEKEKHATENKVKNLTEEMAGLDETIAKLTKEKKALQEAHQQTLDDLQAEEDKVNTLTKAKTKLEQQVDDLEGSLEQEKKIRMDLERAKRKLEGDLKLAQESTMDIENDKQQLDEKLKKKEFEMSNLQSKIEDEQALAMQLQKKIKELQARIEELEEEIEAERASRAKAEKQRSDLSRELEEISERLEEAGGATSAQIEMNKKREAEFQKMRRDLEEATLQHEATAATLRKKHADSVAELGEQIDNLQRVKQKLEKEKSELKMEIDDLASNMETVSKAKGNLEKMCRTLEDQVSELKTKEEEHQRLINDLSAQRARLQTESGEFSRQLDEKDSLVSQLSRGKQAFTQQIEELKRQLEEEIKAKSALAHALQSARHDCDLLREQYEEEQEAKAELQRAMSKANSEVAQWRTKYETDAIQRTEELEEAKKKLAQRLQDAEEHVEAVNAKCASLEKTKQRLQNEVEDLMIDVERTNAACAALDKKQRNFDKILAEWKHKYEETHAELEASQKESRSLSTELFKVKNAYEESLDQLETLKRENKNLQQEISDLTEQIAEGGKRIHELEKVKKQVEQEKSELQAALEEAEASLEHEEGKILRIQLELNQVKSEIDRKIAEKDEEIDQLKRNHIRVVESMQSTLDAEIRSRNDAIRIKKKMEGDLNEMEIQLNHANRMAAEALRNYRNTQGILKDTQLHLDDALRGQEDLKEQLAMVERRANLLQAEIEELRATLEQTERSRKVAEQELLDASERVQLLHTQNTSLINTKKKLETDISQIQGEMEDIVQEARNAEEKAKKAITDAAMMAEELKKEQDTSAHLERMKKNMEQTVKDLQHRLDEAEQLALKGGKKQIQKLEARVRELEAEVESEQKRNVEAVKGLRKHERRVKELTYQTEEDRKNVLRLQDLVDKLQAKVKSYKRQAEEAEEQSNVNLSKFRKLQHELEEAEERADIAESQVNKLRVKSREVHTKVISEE
Sequence of porcine cardiac tropomyosin (Tpm) (P42639 whole entry): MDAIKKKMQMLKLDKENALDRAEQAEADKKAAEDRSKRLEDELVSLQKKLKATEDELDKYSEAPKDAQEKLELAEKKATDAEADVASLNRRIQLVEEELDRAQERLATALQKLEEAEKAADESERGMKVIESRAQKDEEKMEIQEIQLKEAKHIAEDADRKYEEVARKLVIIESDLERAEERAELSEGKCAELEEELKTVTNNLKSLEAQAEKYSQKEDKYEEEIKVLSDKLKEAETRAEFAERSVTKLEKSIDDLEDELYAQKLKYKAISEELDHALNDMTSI

Substance: porcine cardiac tropomyosin (Tpm) (from UniProt P42639 1-284) (natural protein)
- Filaments moving (%) in in vitro motility at 30 °C with 300 nM Tpm, rabbit psoas myosin 12.5 to 100 µg ml^-1 (21.17 to 71.16 %) [1]: 71.2%
- Filaments moving (%) in in vitro motility at 30 °C with 300 nM Tpm, rabbit psoas myosin 12.5 to 100 µg ml^-1 (14.96 to 62.87 %) [2]: 62.9%

Substance: rabbit psoas myosin (from UniProt Q28641 1-1938) (complex)
- Filaments moving (%) in in vitro motility at 30 °C without Tpm, rabbit psoas myosin 12.5 to 100 µg ml^-1 (32.57 to 68.00 %) [1]: 68%
- Filaments moving (%) in in vitro motility at 30 °C without Tpm, rabbit psoas myosin 12.5 to 100 µg ml^-1 (31.02 to 68.11 %) [2]: 68.1%
